The results in this text go back to patent US20240279333A1 (SYSTIMMUNE, published 2024).

For orientation: Kd means the equilibrium constant for the complex coming apart. The low end stands for tighter binding, the high end for weaker binding. By koff is commonly meant the rate constant with which the complex falls apart. The low end stands for slow dissociation, the high end for fast dissociation. As usually defined, the kon is the rate constant with which the complex forms. A low value points to slower complex formation.

Assay [1] deals with T1, CD3 e/d antigen (immobilized on the sensor) (UniProt P07766 23-126; P04234 22-105).
T1 construct: 'e/d' read as epsilon/delta; construct not described
The experiment in a line: Octet RED96, antigen immobilized. (In BLI a coated tip is dipped into the sample, and binding shifts an interference pattern.)

For assay [2], the target named is PD-L1 protein antigen (immobilized on the sensor) (UniProt Q9NZQ7 19-238, limits assumed). Description: Octet RED96, antigen immobilized.
Assay [3] addresses 4-1BB protein antigen (immobilized on the sensor) (UniProt Q07011 24-186, limits assumed). The experiment in a line: Octet RED96, antigen immobilized.
Assay [4] has as its target T2, human 4-1BB on transfected CHO cells (human, UniProt Q07011 24-255).
T2 construct: whole, on cells; also called 41BB expressing CHO cells; human 41BB transfected CHO cells
Description: FACS on human 4-1BB transfected CHO cells, PE goat anti-human IgG Fc secondary; y axis without label.

Assay [5] addresses T3, full length human ROR1 stably expressed on CHO cells (human, UniProt Q01973 30-937).
T3 construct: whole, on cells; also called ROR1-CHO cells; human ROR1 transfected CHO cells
Description: FACS on CHO cells stably expressing full length human ROR1, PE goat anti-human IgG Fc secondary; y axis without label.

The target in assay [6] is T4, human PD-L1 on transfected CHO cells (human, UniProt Q9NZQ7 19-290).
T4 construct: whole, on cells; also called PD-L1 expressing CHO cells; human PD-L1 transfected CHO cells
The experiment in a line: FACS on human PD-L1 transfected CHO cells, PE goat anti-human IgG Fc secondary; y axis without label.

B1: SI-39E23 (PL230 x 806 x 420H5 x 284A10) (antibody)
heavy: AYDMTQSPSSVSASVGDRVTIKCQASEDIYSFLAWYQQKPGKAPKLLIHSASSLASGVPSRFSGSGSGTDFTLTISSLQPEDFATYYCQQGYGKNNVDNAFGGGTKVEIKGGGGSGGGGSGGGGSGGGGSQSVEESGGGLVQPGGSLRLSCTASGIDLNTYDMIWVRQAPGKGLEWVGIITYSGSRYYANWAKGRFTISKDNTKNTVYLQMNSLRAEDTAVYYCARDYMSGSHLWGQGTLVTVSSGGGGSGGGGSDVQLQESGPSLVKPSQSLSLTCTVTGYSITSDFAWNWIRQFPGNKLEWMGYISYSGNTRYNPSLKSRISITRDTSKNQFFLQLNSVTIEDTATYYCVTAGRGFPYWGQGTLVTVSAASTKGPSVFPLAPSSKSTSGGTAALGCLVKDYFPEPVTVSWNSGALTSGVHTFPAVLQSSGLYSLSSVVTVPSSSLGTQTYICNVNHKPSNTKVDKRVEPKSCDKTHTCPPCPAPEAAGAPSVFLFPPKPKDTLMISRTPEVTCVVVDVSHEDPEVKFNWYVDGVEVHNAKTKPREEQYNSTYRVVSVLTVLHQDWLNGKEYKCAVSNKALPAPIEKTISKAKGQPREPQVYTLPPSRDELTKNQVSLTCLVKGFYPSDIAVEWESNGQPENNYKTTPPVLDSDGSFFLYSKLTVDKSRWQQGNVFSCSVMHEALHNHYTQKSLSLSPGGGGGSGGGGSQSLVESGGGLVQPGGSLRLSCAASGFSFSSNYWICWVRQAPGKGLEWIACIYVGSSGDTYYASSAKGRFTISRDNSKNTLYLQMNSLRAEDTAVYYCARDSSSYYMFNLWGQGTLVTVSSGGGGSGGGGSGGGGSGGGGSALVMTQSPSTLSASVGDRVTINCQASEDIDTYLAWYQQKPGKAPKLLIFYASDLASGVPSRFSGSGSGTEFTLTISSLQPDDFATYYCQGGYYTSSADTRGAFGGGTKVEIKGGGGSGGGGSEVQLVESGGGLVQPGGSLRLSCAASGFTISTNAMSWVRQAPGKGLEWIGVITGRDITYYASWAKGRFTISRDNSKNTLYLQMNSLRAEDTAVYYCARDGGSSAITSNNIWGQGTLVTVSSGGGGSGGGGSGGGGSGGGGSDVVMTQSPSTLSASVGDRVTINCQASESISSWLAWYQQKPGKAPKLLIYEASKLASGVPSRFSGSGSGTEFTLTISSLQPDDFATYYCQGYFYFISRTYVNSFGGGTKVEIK
light: DILMTQSPSSMSVSLGDTVSITCHSSQDINSNIGWLQQRPGKSFKGLIYHGTNLDDEVPSRFSGSGSGADYSLTISSLESEDFADYYCVQYAQFPWTFGGGTKLEIKRTVAAPSVFIFPPSDEQLKSGTASVVCLLNNFYPREAKVQWKVDNALQSGNSQESVTEQDSKDSTYSLSSTLTLSKADYEKHKVYACEVTHQGLSSPVTKSFNRGEC
notes: Tetra-specific antibody, symmetric dimer
In assay [1], B1 displayed a Kd of 207 pM, a Response of 2.65, a koff of 2.54e-05 s⁻¹ and an on-rate (kon) of 123000 M⁻¹ s⁻¹. In assay [2], this molecule displayed a Kd of 40.2 pM, a Response of 1.9, a koff of 1.94e-05 s⁻¹ and a kon of 483000 M⁻¹ s⁻¹. In assay [3], this molecule came in with a Kd of 696 pM, a Response of 2.02, a koff of 0.000141 s⁻¹ and a kon of 203000 M⁻¹ s⁻¹.

B2: SI-39E18 (284A10 x 806 x PL221 x 420H5) (antibody)
heavy: not shown
light: DILMTQSPSSMSVSLGDTVSITCHSSQDINSNIGWLQQRPGKSFKGLIYHGTNLDDEVPSRFSGSGSGADYSLTISSLESEDFADYYCVQYAQFPWTFGGGTKLEIKRTVAAPSVFIFPPSDEQLKSGTASVVCLLNNFYPREAKVQWKVDNALQSGNSQESVTEQDSKDSTYSLSSTLTLSKADYEKHKVYACEVTHQGLSSPVTKSFNRGEC
notes: as for B1
In assay [1], B2 showed a Kd of 632 pM, a Response of 1.76, a koff of 0.00011 s⁻¹ and a kon of 174000 M⁻¹ s⁻¹. Moreover, in assay [2], binding was put at a Kd of 168 pM, the Response turned out to be 1.83, the koff was 6.37e-05 s⁻¹ and the kon amounted to 379000 M⁻¹ s⁻¹. In assay [3], this molecule showed a Kd of 393 pM, a Response of 2.02, a koff of 9.24e-05 s⁻¹ and a kon of 235000 M⁻¹ s⁻¹.

B3: SI-39E4 (PL230 x 806 x 284A10 x 420H5) (antibody)
heavy: not shown
light: DILMTQSPSSMSVSLGDTVSITCHSSQDINSNIGWLQQRPGKSFKGLIYHGTNLDDEVPSRFSGSGSGADYSLTISSLESEDFADYYCVQYAQFPWTFGGGTKLEIKRTVAAPSVFIFPPSDEQLKSGTASVVCLLNNFYPREAKVQWKVDNALQSGNSQESVTEQDSKDSTYSLSSTLTLSKADYEKHKVYACEVTHQGLSSPVTKSFNRGEC
notes: Tetra-specific antibody, symmetric dimer; also called SI-39E04; 39 E04
In assay [1], B3 came in with a Kd of less than 1 pM, a Response of 1.97, a koff of less than 1e-07 s⁻¹ and a kon of 86100 M⁻¹ s⁻¹. Besides, in assay [2], the affinity, expressed as Kd, was 72.3 pM; the Response came out at 2.15; the koff stood at 2.41e-05 s⁻¹; the kon is 333000 M⁻¹ s⁻¹. In assay [3], this molecule had a dissociation constant (Kd) of 354 pM, a Response of 2.42, a koff of 5.91e-05 s⁻¹ and a kon of 167000 M⁻¹ s⁻¹.

B4: SI-39E29 (806 x 284A10 x PL221 x 420H5) (antibody)
heavy: not shown
light: DVVMTQSPSTLSASVGDRVTINCQASESISSWLAWYQQKPGKAPKLLIYEASKLASGVPSRFSGSGSGTEFTLTISSLQPDDFATYYCQGYFYFISRTYVNSFGGGTKVEIKRTVAAPSVFIFPPSDEQLKSGTASVVCLLNNFYPREAKVQWKVDNALQSGNSQESVTEQDSKDSTYSLSSTLTLSKADYEKHKVYACEVTHQGLSSPVTKSFNRGEC
notes: as for B1
As for B4, in assay [1], the affinity, expressed as Kd, was 475 pM; the Response was 1.85; the koff stood at 7.86e-05 s⁻¹; the kon is 166000 M⁻¹ s⁻¹. For the same molecule, in assay [2], the affinity, expressed as Kd, was 283 pM; the Response was found to be 1.72; the koff was determined as 0.000106 s⁻¹; the kon was determined as 376000 M⁻¹ s⁻¹.

B5: SI-35E18 (460C3-L1H1-scFv x PL230C6-Fab x 323H7-H4L1-scFv x 284A10-H1L1-scFv) (antibody, human IgG1, kappa)
heavy: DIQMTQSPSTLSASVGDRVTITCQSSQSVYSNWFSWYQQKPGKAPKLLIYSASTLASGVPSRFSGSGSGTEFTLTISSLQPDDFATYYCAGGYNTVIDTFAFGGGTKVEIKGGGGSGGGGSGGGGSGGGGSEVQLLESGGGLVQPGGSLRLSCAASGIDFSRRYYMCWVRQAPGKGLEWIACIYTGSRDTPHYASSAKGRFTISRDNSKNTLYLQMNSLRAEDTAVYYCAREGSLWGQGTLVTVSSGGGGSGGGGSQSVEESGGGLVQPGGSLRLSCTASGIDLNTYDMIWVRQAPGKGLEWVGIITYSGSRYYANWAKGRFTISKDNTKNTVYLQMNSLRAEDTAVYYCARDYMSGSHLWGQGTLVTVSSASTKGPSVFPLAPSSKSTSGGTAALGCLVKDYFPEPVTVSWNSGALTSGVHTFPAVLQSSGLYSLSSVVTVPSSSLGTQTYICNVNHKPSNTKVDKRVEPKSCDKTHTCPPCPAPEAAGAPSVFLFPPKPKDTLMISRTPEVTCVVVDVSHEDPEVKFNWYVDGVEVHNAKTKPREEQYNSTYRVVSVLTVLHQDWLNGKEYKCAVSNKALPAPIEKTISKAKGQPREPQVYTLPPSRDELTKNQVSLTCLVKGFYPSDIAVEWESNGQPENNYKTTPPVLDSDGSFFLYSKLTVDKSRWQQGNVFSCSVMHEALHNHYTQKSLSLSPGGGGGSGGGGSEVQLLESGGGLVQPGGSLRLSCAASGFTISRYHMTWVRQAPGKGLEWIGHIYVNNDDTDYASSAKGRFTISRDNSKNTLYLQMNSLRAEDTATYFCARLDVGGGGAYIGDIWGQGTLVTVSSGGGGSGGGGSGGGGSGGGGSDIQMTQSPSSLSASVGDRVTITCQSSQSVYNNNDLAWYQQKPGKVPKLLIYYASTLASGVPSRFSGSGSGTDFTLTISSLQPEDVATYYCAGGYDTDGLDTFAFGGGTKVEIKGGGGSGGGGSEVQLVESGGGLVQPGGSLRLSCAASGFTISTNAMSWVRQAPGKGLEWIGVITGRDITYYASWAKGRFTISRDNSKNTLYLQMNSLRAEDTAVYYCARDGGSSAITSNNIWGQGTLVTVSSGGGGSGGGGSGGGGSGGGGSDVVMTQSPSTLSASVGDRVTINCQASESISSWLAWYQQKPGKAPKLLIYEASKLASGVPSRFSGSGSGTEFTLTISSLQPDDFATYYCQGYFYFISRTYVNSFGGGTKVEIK
light: AYDMTQSPSSVSASVGDRVTIKCQASEDIYSFLAWYQQKPGKAPKLLIHSASSLASGVPSRFSGSGSGTDFTLTISSLQPEDFATYYCQQGYGKNNVDNAFGGGTKVEIKRTVAAPSVFIFPPSDEQLKSGTASVVCLLNNFYPREAKVQWKVDNALQSGNSQESVTEQDSKDSTYSLSSTLTLSKADYEKHKVYACEVTHQGLSSPVTKSFNRGEC
notes: as for B1
On to B5, for which the binding result in assay [4], in assay [5] and in assay [6] was “binds” throughout.

B6: SI-39E13 (420H5 x PL230 x 284A10 x 806) (antibody, human IgG1, kappa)
heavy: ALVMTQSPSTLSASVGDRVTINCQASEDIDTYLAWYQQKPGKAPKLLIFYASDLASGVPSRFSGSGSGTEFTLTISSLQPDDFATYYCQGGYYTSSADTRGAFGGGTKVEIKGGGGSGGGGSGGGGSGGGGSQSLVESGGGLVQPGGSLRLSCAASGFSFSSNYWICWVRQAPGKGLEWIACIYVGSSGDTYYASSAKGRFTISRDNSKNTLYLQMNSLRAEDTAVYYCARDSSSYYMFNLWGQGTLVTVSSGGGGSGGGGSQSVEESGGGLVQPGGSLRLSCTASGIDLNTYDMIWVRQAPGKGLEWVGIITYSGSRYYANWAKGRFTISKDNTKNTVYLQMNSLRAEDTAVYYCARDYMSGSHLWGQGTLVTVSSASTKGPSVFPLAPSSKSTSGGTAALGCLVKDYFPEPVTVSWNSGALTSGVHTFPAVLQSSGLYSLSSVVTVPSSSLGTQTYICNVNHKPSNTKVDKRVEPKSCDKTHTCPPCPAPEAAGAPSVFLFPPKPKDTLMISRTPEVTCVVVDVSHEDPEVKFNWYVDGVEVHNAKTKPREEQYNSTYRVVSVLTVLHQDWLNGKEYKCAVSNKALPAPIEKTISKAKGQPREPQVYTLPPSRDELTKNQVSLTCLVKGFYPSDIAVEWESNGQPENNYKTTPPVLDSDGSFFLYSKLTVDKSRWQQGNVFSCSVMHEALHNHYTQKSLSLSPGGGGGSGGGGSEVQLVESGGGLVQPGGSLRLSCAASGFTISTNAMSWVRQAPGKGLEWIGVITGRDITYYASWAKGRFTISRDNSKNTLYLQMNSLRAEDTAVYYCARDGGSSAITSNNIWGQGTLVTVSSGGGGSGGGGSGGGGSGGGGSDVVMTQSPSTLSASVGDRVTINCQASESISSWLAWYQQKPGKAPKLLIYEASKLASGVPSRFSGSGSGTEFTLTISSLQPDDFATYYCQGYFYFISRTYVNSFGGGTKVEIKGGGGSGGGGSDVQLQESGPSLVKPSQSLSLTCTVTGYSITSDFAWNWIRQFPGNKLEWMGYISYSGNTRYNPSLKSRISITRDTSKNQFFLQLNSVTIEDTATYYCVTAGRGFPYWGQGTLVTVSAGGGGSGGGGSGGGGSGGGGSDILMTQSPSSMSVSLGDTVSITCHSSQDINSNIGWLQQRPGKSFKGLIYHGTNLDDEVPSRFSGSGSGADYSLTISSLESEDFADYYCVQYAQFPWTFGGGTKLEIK
light: AYDMTQSPSSVSASVGDRVTIKCQASEDIYSFLAWYQQKPGKAPKLLIHSASSLASGVPSRFSGSGSGTDFTLTISSLQPEDFATYYCQQGYGKNNVDNAFGGGTKVEIKRTVAAPSVFIFPPSDEQLKSGTASVVCLLNNFYPREAKVQWKVDNALQSGNSQESVTEQDSKDSTYSLSSTLTLSKADYEKHKVYACEVTHQGLSSPVTKSFNRGEC
notes: as for B1
In assay [1], B6 gave a Kd of less than 1 pM, a Response of 1.8, a koff of less than 1e-07 s⁻¹ and a kon of 104000 M⁻¹ s⁻¹. Besides, in assay [2], the Kd was determined as 80.1 pM, the Response is 1.92, the koff worked out at 3.32e-05 s⁻¹ and the kon came to 415000 M⁻¹ s⁻¹. In assay [3], this molecule returned a Kd of 117 pM, a Response of 2.47, a koff of 2.65e-05 s⁻¹ and a kon of 227000 M⁻¹ s⁻¹.

B7: SI-35E25 (420H5 x PL230C6 x 330F11 x 284A10) (antibody, human IgG1, kappa)
heavy: not shown
light: AYDMTQSPSSVSASVGDRVTIKCQASEDIYSFLAWYQQKPGKAPKLLIHSASSLASGVPSRFSGSGSGTDFTLTISSLQPEDFATYYCQQGYGKNNVDNAFGGGTKVEIKRTVAAPSVFIFPPSDEQLKSGTASVVCLLNNFYPREAKVQWKVDNALQSGNSQESVTEQDSKDSTYSLSSTLTLSKADYEKHKVYACEVTHQGLSSPVTKSFNRGEC
notes: Tetra-specific antibody, symmetric dimer; also called '25' in 'SI-3524, 25, and 26'
For B7, the binding result in assay [5] is reported as “no binding (tested: 10 nM)”.

B8: SI-39E10 (420H5 x PL230 x 806 x 284A10) (antibody, human IgG1, kappa)
heavy: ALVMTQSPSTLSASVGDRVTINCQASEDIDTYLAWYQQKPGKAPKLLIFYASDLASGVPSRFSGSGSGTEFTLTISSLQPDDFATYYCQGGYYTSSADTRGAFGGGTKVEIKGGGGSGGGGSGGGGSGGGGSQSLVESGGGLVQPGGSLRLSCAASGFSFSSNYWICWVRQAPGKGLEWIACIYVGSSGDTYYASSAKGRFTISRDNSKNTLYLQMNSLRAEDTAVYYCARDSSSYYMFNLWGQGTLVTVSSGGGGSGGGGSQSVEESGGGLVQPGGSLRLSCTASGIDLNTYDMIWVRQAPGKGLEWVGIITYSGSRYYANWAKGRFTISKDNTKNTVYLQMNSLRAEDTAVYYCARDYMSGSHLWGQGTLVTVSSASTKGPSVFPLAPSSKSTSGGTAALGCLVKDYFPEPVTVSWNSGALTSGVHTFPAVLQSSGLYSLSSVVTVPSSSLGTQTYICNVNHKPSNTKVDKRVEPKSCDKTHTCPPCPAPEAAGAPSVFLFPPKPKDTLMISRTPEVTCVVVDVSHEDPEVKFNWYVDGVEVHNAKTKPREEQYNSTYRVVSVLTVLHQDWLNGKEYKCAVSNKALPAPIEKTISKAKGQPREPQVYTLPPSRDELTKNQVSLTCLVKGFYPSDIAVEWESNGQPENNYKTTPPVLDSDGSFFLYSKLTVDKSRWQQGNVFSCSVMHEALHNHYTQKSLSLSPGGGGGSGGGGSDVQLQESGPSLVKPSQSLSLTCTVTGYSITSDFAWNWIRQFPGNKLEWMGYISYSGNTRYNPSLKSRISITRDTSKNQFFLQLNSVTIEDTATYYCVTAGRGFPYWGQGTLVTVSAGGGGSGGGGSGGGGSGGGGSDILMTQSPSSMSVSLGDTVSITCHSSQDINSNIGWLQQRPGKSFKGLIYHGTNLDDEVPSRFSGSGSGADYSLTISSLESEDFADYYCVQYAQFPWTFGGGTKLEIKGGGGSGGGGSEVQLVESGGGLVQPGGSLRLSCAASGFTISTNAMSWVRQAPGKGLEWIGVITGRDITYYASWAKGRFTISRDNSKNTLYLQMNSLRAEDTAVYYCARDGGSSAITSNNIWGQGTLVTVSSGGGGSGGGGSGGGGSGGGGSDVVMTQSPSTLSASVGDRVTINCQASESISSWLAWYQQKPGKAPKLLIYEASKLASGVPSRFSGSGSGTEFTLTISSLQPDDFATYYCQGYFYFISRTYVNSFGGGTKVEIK
light: AYDMTQSPSSVSASVGDRVTIKCQASEDIYSFLAWYQQKPGKAPKLLIHSASSLASGVPSRFSGSGSGTDFTLTISSLQPEDFATYYCQQGYGKNNVDNAFGGGTKVEIKRTVAAPSVFIFPPSDEQLKSGTASVVCLLNNFYPREAKVQWKVDNALQSGNSQESVTEQDSKDSTYSLSSTLTLSKADYEKHKVYACEVTHQGLSSPVTKSFNRGEC
notes: as for B1
Turning to B8, in assay [1], the equilibrium dissociation constant (Kd) was less than 1 pM, the Response was 2.24, the koff is less than 1e-07 s⁻¹ and the association rate constant (kon) worked out at 110000 M⁻¹ s⁻¹. Besides, in assay [2], binding was put at a Kd of 68.5 pM, the Response worked out at 1.94, the koff worked out at 2.61e-05 s⁻¹ and the kon amounted to 381000 M⁻¹ s⁻¹. In assay [3], the affinity, expressed as Kd, was 35.6 pM; the Response amounted to 2.63; the koff was 7.43e-06 s⁻¹; the kon was found to be 209000 M⁻¹ s⁻¹.

B9: SI-35E24 (460C3 x PL230C6 x 330F11 x 284A10) (antibody, human IgG1, kappa)
heavy: not shown
light: AYDMTQSPSSVSASVGDRVTIKCQASEDIYSFLAWYQQKPGKAPKLLIHSASSLASGVPSRFSGSGSGTDFTLTISSLQPEDFATYYCQQGYGKNNVDNAFGGGTKVEIKRTVAAPSVFIFPPSDEQLKSGTASVVCLLNNFYPREAKVQWKVDNALQSGNSQESVTEQDSKDSTYSLSSTLTLSKADYEKHKVYACEVTHQGLSSPVTKSFNRGEC
notes: Tetra-specific antibody, symmetric dimer; also called SI-3524
Consider B9, for which the binding result in assay [5] is recorded as “no binding (tested: 10 nM)”.

B10: SI-35E26 (466F6 x PL230C6 x 330F11 x 284A10) (antibody, human IgG1, kappa)
heavy: not shown
light: AYDMTQSPSSVSASVGDRVTIKCQASEDIYSFLAWYQQKPGKAPKLLIHSASSLASGVPSRFSGSGSGTDFTLTISSLQPEDFATYYCQQGYGKNNVDNAFGGGTKVEIKRTVAAPSVFIFPPSDEQLKSGTASVVCLLNNFYPREAKVQWKVDNALQSGNSQESVTEQDSKDSTYSLSSTLTLSKADYEKHKVYACEVTHQGLSSPVTKSFNRGEC
notes: Tetra-specific antibody, symmetric dimer; also called '26' in 'SI-3524, 25, and 26'
Take B10: the binding result in assay [5] is given as “no binding (tested: 10 nM)”.
